Source: patent publication US20170015742A1 (published 2017)

What was measured:
[1] = target: T1, human VEGF 121 (PR-1515941) (human, UniProt P15692 207-395); assay: SPR (Biacore), binding protein captured by anti-human Fc, antigen injected
T1 construct: Recombinant isoform; also called hVEGF121
T1 sequence: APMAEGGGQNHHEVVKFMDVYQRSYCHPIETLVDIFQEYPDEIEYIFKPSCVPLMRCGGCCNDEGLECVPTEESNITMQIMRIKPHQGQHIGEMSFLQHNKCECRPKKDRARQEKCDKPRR
Description: (§1) Unreacted moieties on the biosensor surface were blocked with ethanolamine. For kinetic analysis, rate equations derived from the 1:1 Langmuir binding model were fitted simultaneously to multiple antigen injections (using global fit analysis) with the use of Scrubber 2 (BioLogic Software), Biacore Biaevaluation 4.0.1 software or Biacore T100 Evaluation software. Purified antibodies or DVD-Ig molecules were diluted in running buffer for capture across goat anti-human Fc reaction surfaces. Antibodies or DVD-Ig molecules to be captured as a ligand (1 μg/ml) were injected over reaction matrices at a flow rate of 10 μl/minute. During the assay, all measurements were referenced against the capture surface alone (i.e., with no captured antibody or DVD-Ig molecule). […] The equilibrium dissociation constant KD (M) of the reaction between antibodies and the target antigen was then calculated from the kinetic rate constants by the following formula: KD=Koff/Kₒₙ. Binding was recorded as a function of time and kinetic rate constants were calculated. In this assay, on-rates as fast as 10⁶M⁻¹s⁻¹ and off-rates as slow as 10⁻⁶ s⁻¹ could be measured.

[2] = target: T2, human VEGF 111 (PR-1520687) (human, UniProt P15692-10 27-137); assay: as above
T2 construct: also called hVEGF111
T2 sequence (looked up): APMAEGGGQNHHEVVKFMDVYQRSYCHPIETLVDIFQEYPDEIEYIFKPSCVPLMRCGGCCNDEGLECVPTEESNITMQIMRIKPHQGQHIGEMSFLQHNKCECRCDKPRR
Description: as §1

[3] = target: T3, human PDGF-B (PR-1373790) (human, UniProt P01127 82-190); assay: as above
T3 construct: Soluble recombinant PDGF-BB homodimer; also called human PDGF-BB; hPDGF-BB
Description: as §1

cyno PDGF-B (PR-1575400) [4] = target: T4, cyno PDGF-B (PR-1575400) (cynomolgus monkey, UniProt P01127 82-190 (human entry), limits assumed); assay: as above
T4 construct: Recombinant; also called cynomolgus monkey PDGF-BB; cynoPDGF-BB
T4 chain: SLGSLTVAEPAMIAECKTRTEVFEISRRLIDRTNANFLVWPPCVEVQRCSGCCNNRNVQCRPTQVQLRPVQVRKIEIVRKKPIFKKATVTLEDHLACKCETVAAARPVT
Description: as §1

[5] = target: T5, mouse PDGF-B (PR-1577160) (mouse, UniProt P31240 82-190); assay: as above
T5 construct: Recombinant; also called mouse PDGF-BB; mPDGF-BB
Description: as §1

[6] = target: T6, human VEGF 165 (PR-1350437) (human, UniProt P15692 207-395); assay: as above
T6 construct: Purified recombinant protein; also called hVEGF165
Description: as §1

[7] = target: T3, human PDGF-B (PR-1373790); assay: SPR (Biacore), mAb captured by anti-human Fc, antigen injected
Description: as §1

cyno PDGF-B (PR-1575400) [8] = target: T4, cyno PDGF-B (PR-1575400); assay: as above
Description: as §1

[9] = target: T5, mouse PDGF-B (PR-1577160); assay: as above
Description: as §1

[10] = target: T1, human VEGF 121 (PR-1515941); assay: as above
Description: as §1

[11] = target: T2, human VEGF 111 (PR-1520687); assay: as above
Description: as §1

[12] = target: T6, human VEGF 165 (PR-1350437); assay: as above
Description: as §1

T5 sequence (P31240 82-190 limits assumed): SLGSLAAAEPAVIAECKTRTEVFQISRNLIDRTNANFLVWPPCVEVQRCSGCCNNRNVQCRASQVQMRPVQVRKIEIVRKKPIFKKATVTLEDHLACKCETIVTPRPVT

B1: 9E10.1-GS-33675 anti-VEGF/anti-PDGF DVD-Ig (PR-1610561) (bispecific antibody, human IgG1, kappa, L234A L235A)
heavy: EIQLVQSGSELKKPGASVKVSCKASGYTFTNYGMYWVKQAPGQGLEYMGWIDTETGRPTYADDFKGRFVFSLDTSVSTAYLQISSLKAEDTAVYFCARWSGDTTGIRGPWFAYWGQGTLVTVSSGGGGSGGGGSEVTLRESGPALVKPTQTLTLTCTFSGFSLSTYGMGVGWIRQPPGKALEWLANIWWDDDKYYNPSLKNRLTISKDTSKNQVVLTMTNMDPVDTATYYCARIESSGPKYSFDYWGQGTMVTVSSASTKGPSVFPLAPSSKSTSGGTAALGCLVKDYFPEPVTVSWNSGALTSGVHTFPAVLQSSGLYSLSSVVTVPSSSLGTQTYICNVNHKPSNTKVDKKVEPKSCDKTHTCPPCPAPEAAGGPSVFLFPPKPKDTLMISRTPEVTCVVVDVSHEDPEVKFNWYVDGVEVHNAKTKPREEQYNSTYRVVSVLTVLHQDWLNGKEYKCKVSNKALPAPIEKTISKAKGQPREPQVYTLPPSREEMTKNQVSLTCLVKGFYPSDIAVEWESNGQPENNYKTTPPVLDSDGSFFLYSKLTVDKSRWQQGNVFSCSVMHEALHNAYTQKSLSLSPGK
light: DIRMTQSPSSLSASVGDRVTIECLASEDIYSDLAWYQQKPGKSPKLLIYNANGLQNGVPSRFSGSGSGTDYSLTISSLQPEDVATYFCQQYNYFPGTFGQGTKLEIKGGSGGGGSGGEIVLTQSPGTLSLSPGERATLSCRASSGSIWYSFVSWYQQKPGQAPRLLIYADDQRASGIPDRFSGSGSGTDFTLTISRLEPEDFAVYYCQSYGINIDVVFGGGTKVEIKRTVAAPSVFIFPPSDEQLKSGTASVVCLLNNFYPREAKVQWKVDNALQSGNSQESVTEQDSKDSTYSLSSTLTLSKADYEKHKVYACEVTHQGLSSPVTKSFNRGEC
notes: DVD-Ig: outer domain hBEW-9E10.1 (VEGF), inner domain CL-33675 (PDGF), linkers GS-H10 / GS-L10(dR), human IgG1 L234A, L235A, H435A, kappa; Lot 2213329; also called hu VEGF 9E10.1-GS-hu PDGF 33675 [hu IgG1/k]; LALA H435A
Kd [1]: 0.23 nM
koff [1]: 4.1e-05 s⁻¹
kon [1]: 180000 M⁻¹ s⁻¹
Kd [2]: 0.29 nM
koff [2]: 4.3e-05 s⁻¹
kon [2]: 150000 M⁻¹ s⁻¹
Kd [3]: ≤ 0.0052 nM
koff [3]: 5.2e-05 s⁻¹
kon [3]: ≥ 1e+07 M⁻¹ s⁻¹
Kd (cyno PDGF-B (PR-1575400) [4]): ≤ 0.00081 nM
koff (cyno PDGF-B (PR-1575400) [4]): 8.1e-06 s⁻¹
kon (cyno PDGF-B (PR-1575400) [4]): ≥ 1e+07 M⁻¹ s⁻¹
Kd [5]: ≤ 0.0052 nM
koff [5]: 5.2e-05 s⁻¹
kon [5]: ≥ 1e+07 M⁻¹ s⁻¹
Kd [6]: 0.065 nM
koff [6]: 3.4e-05 s⁻¹
kon [6]: 520000 M⁻¹ s⁻¹

B2: CL-33675, PR-1593725 (antibody, V domains shown)
VH: EVTLRESGPALVKPTQTLTLTCTFSGFSLSTYGMGVGWIRQPPGKALEWLANIWWDDDKYYNPSLKNRLTISKDTSKNQVVLTMTNMDPVDTATYYCARIESSGPKYSFDYWGQGTMVTVSS
VL: EIVLTQSPGTLSLSPGERATLSCRASSGSIWYSFVSWYQQKPGQAPRLLIYADDQRASGIPDRFSGSGSGTDFTLTISRLEPEDFAVYYCQSYGINIDVVFGGGTKVEIK
notes: also called CL-33675-IgG
Kd [7]: ≤ 0.00058 nM
koff [7]: 5.8e-06 s⁻¹
kon [7]: ≥ 1e+07 M⁻¹ s⁻¹
Kd (cyno PDGF-B (PR-1575400) [8]): ≤ 0.0013 nM
koff (cyno PDGF-B (PR-1575400) [8]): 1.3e-05 s⁻¹
kon (cyno PDGF-B (PR-1575400) [8]): ≥ 1e+07 M⁻¹ s⁻¹
Kd [9]: ≤ 0.00058 nM
koff [9]: 5.8e-06 s⁻¹
kon [9]: ≥ 1e+07 M⁻¹ s⁻¹

B3: AB642 (9E10.1), PR-1594047 (antibody, V domains shown)
VH: EIQLVQSGSELKKPGASVKVSCKASGYTFTNYGMYWVKQAPGQGLEYMGWIDTETGRPTYADDFKGRFVFSLDTSVSTAYLQISSLKAEDTAVYFCARWSGDTTGIRGPWFAYWGQGTLVTVSS
VL: DIRMTQSPSSLSASVGDRVTIECLASEDIYSDLAWYQQKPGKSPKLLIYNANGLQNGVPSRFSGSGSGTDYSLTISSLQPEDVATYFCQQYNYFPGTFGQGTKLEIK
notes: Parental anti-VEGF mAb of PR-1610561; Humanized IgG; also called hBEW-9E10.1
Kd [10]: 0.021 nM
koff [10]: 6.8e-05 s⁻¹
kon [10]: 3.2e+06 M⁻¹ s⁻¹
Kd [11]: 0.058 nM
koff [11]: 0.0001 s⁻¹
kon [11]: 1.8e+06 M⁻¹ s⁻¹
Kd [12]: 0.0018 nM
koff [12]: 2.8e-05 s⁻¹
kon [12]: 1.6e+07 M⁻¹ s⁻¹
